From IntAct's records for PubMed 18055455

B1: Mothers against decapentaplegic homolog 3 (Rattus norvegicus (Rat)), P84025 (parent)
chain: MSSILPFTPPIVKRLLGWKKGEQNGQEEKWCEKAVKSLVKKLKKTGQLDELEKAITTQNVNTKCITIPRSLDGRLQVSHRKGLPHVIYCRLWRWPDLHSHHELRAMELCEFAFNMKKDEVCVNPYHYQRVETPVLPPVLVPRHTEIPAEFPPLDDYSHSIPENTNFPAGIEPQSNIPETPPPGYLSEDGETSDHQMNHSMDAGSPNLSPNPMSPAHNNLDLQPVTYCEPAFWCSISYYELNQRVGETFHASQPSMTVDGFTDPSNSERFCLGLLSNVNRNAAVELTRRHIGRGVRLYYIGGEVFAECLSDSAIFVQSPNCNQRYGWHPATVCKIPPGCNLKIFNNQEFAALLAQSVNQGFEAVYQLTRMCTIRMSFVKGWGAEYRRQTVTSTPCWIELHLNGPLQWLDKVLTQMGSPSIRCSSVS

Variants of: B1
Settings: with ncap_sars N

| Variant | effect of a mutation on the interaction |
| --- | --- |
| S423D;S425D | with no effect |
| S422A;S423A;S425A | with no effect |
